Assay results reported in US20090238814A1.

How the values were obtained:
[1] = molecular target: wheat germ agglutinin (Triticum vulgaris, WGA)-agarose CL-4B (Triticum vulgaris) (UniProt P10968); experiment: WGA-agarose lectin affinity chromatography, eluted with 0.1 M GlcNAc
[2] = molecular target: wheat germ agglutinin (Triticum vulgaris, WGA)-agarose CL-4B (Triticum vulgaris) (UniProt P10968); experiment: WGA-agarose lectin affinity chromatography, eluted with 0.5 M GlcNAc
[3] = molecular target: wheat germ agglutinin (Triticum vulgaris, WGA)-agarose CL-4B (Triticum vulgaris) (UniProt P10968); experiment: WGA-agarose lectin affinity chromatography, enzyme activity of fractions
[4] = molecular target: concanavalin A (Canavalia ensiformis, ConA)-sepharose 4B (Canavalia ensiformis) (UniProt P02866); experiment: ConA-sepharose lectin affinity chromatography, enzyme activity of fractions
[5] = molecular target: concanavalin A (Canavalia ensiformis, ConA)-sepharose 4B (Canavalia ensiformis) (UniProt P02866); experiment: ConA-sepharose lectin affinity chromatography, eluted with 0.5 M alpha-methyl-D-mannopyranoside
[6] = molecular target: concanavalin A (Canavalia ensiformis, ConA)-sepharose 4B (Canavalia ensiformis) (UniProt P02866); experiment: ConA-sepharose lectin affinity chromatography, eluted with 0.01 M alpha-methyl-D-mannopyranoside
[7] = molecular target: wheat germ agglutinin (Triticum vulgaris, WGA)-agarose CL-4B (Triticum vulgaris) (UniProt P10968); experiment: WGA-agarose lectin affinity chromatography after neuraminidase digestion of the enzyme
[8] = molecular target: wheat germ agglutinin (Triticum vulgaris, WGA)-agarose CL-4B (Triticum vulgaris) (UniProt P10968); experiment: WGA-agarose lectin affinity chromatography after neuraminidase digestion, eluted with 0.1 M GlcNAc
[9] = molecular target: wheat germ agglutinin (Triticum vulgaris, WGA)-agarose CL-4B (Triticum vulgaris) (UniProt P10968); experiment: WGA-agarose lectin affinity chromatography after neuraminidase digestion, eluted with 0.5 M GlcNAc
[10] = molecular target: wheat germ agglutinin (Triticum vulgaris, WGA)-agarose CL-4B (Triticum vulgaris) (UniProt P10968); experiment: WGA-agarose lectin affinity chromatography

Chain of UniProt P10968 (P10968 27-197): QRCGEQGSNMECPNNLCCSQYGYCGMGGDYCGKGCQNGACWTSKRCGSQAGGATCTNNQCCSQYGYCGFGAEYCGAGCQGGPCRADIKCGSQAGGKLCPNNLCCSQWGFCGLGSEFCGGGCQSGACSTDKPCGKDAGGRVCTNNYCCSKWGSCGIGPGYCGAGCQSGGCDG

percent of relative activity in Weakly Bound fraction [1] | percent of relative activity in Strongly Bound fraction [2] | percent of relative activity in Unbound fraction [3] | percent of relative activity in Unbound fraction [4] | percent of relative activity in Strongly Bound fraction [5] | percent of relative activity in Weakly Bound fraction [6] | percent of relative activity in Unbound fraction [7] | percent of relative activity in Weakly Bound fraction [8] | percent of relative activity in Strongly Bound fraction [9] | percent strongly bound to the WGA column [10] | Substance
32% | 65% | 3% | 4% | 36% | 60% | – | – | – | – | CD6-TNSALP (human TNSALP anchorless at the C-terminal tagged with a stretch of six L-Asp) (from UniProt P05186 18-505) (enzyme)
– | – | – | – | – | – | 2% | 11% | 86% | – | CD6-TNSALP after neuraminidase digestion (from UniProt P05186 18-505) (enzyme)
23% | 76% | 1% | 2% | 39% | 59% | – | – | – | – | CD8-TNSALP (human TNSALP anchorless at the C-terminal tagged with a stretch of eight L-Asp) (from UniProt P05186 18-505) (enzyme)
– | – | – | – | – | – | 4% | 4% | 92% | – | CD8-TNSALP after neuraminidase digestion (from UniProt P05186 18-505) (enzyme)
66% | 33% | 0% | 3% | 38% | 59% | – | – | – | 34% | anchorless recombinant human TNSALP (human tissue-nonspecific alkaline phosphatase anchorless at the C-terminal) (from UniProt P05186 18-505) (enzyme)
– | – | – | – | – | – | 0% | 9% | 91% | – | anchorless rhTNSALP after neuraminidase digestion (from UniProt P05186 18-505) (enzyme)
